The EC50 is the midpoint of the concentration-response curve. Low values mean a more potent agent, high ones a less potent agent.

One test deals with T1, MARV VLP (Marburg virus (MARV), UniProt P35253 19-681).
T1 sequence: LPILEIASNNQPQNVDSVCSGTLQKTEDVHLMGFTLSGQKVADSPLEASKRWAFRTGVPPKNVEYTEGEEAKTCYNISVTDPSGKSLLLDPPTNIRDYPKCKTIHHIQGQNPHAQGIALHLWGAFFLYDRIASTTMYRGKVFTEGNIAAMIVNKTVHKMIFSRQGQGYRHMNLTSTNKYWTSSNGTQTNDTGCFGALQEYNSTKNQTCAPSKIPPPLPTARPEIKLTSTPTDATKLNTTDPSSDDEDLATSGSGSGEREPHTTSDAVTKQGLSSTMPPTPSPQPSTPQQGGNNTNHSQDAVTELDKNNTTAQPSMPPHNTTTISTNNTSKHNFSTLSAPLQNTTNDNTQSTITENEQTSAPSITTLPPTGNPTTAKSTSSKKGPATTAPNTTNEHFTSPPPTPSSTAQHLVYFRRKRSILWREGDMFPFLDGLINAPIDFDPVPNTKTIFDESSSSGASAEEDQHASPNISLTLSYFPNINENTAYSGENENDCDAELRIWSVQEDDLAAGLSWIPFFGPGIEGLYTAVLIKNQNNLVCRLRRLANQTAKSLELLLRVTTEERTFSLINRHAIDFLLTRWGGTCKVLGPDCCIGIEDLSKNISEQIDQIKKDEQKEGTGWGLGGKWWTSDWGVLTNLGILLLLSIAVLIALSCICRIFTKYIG
The experiment in a line: ELISA. In general terms: ELISA stands for enzyme-linked immunosorbent assay.

For another test, the target named is T2, EBOV VLP (Ebola virus (EBOV), UniProt Q05320 33-676).
T2 sequence: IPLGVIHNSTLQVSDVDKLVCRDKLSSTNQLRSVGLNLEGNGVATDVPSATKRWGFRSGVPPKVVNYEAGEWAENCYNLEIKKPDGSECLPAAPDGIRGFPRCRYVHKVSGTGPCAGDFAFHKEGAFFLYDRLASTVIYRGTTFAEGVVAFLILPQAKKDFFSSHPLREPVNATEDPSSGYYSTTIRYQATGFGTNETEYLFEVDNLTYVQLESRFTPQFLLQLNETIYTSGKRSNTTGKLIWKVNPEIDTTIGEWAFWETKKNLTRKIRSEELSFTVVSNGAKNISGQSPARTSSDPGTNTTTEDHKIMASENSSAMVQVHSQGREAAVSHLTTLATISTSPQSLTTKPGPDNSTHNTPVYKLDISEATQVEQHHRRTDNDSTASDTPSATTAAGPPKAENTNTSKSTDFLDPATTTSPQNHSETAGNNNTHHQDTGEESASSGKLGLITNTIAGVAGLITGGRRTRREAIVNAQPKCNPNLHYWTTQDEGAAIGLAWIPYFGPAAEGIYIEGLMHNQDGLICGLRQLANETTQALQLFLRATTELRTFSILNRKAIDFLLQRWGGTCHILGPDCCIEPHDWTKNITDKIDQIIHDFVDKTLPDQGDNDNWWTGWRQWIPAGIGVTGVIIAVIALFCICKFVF
As to the kind of experiment: ELISA.

The target of a further test is T3, SUDV VLP (Sudan virus (SUDV), UniProt Q66814 33-676).
T3 sequence: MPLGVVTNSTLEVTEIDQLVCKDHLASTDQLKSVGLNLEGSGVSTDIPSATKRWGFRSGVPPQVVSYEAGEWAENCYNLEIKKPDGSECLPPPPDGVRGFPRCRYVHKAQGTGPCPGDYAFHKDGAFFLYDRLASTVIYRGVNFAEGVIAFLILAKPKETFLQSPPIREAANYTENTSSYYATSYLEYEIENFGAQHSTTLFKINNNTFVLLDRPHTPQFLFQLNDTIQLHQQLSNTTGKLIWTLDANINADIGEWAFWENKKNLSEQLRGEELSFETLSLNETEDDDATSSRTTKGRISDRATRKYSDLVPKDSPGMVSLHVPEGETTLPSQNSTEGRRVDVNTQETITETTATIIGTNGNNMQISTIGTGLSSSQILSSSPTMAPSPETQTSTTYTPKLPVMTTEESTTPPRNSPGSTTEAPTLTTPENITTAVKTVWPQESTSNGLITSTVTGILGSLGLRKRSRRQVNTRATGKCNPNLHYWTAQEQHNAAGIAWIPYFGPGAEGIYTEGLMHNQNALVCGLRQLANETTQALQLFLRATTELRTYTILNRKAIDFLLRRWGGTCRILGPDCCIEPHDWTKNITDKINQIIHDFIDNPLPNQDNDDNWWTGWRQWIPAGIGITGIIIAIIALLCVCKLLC
The experiment in a line: ELISA.

The target in another test is T4, MARV (Musoke strain) GP (Marburg virus (MARV), Musoke strain, UniProt P35253 19-648).
T4 sequence: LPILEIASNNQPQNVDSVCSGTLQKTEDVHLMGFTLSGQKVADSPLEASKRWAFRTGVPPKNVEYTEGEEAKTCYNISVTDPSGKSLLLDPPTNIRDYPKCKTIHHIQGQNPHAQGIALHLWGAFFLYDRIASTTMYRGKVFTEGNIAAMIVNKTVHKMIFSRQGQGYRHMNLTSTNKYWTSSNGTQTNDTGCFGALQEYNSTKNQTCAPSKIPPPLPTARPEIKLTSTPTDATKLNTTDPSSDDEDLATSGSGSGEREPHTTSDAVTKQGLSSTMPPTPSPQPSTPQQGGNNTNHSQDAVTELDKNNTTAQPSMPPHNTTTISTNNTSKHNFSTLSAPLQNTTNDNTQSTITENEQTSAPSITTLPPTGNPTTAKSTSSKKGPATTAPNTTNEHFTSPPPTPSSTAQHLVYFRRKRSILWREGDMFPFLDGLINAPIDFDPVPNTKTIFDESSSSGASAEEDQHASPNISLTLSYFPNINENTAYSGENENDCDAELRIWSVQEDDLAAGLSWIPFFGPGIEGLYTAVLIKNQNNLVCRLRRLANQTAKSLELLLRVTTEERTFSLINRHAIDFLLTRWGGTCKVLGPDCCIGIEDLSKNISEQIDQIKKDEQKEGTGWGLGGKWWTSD
The experiment in a line: GP ELISA, purified mAb.

A further test concerns the target T5, EBOV soluble GP (sGP) (Ebola virus (EBOV), UniProt P60170 33-324).
T5 sequence: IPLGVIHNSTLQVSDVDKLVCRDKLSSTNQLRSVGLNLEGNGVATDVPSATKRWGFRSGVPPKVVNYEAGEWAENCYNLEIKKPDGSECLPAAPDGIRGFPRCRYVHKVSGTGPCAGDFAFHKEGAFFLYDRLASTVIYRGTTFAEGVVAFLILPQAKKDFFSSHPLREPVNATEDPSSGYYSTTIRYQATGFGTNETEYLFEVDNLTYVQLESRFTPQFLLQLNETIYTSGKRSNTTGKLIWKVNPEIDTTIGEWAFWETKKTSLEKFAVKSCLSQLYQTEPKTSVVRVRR
The experiment in a line: ELISA.

In another test the target is T6, EBOV GPcl (Ebola virus (EBOV), UniProt Q05320 33-200; Q05320 502-632).
T6 sequence 1: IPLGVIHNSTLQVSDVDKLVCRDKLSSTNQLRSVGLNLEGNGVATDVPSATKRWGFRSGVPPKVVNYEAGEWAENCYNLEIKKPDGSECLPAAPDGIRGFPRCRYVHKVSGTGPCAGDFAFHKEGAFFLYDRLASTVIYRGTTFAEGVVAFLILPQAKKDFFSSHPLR
T6 sequence 2: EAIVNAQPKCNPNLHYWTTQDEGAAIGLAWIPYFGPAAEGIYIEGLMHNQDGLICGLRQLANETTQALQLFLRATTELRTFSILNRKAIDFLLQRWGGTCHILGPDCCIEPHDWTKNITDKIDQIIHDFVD
The experiment in a line: ELISA.

B1: FVM02P (antibody, V domains shown)
VH: EVQLVESGGGLVQPGGSLRLSCAASGFTGFTFSDYAFYWVRQAPGKGLEWVGFIRGKAYGGTADYAASVKGRFTISRDNSKNTAYLQMSSLKTEDSAVYYCTSQGVTVATPYHWGQGVLVTVSS
VL: DIVLTQSPLSLPVTPGEPASISCRSSQSLLHSGGKTYLYWYLQKPGQSPQLLIHEVSNRASGVPDRFSGSGSGTDFTLKISRVEAEDVGVYYCMQGIQLPLTFGGGTKVEIKR
Turning to B1, the EC50 in the test with MARV VLP amounted to 7.73 nM; with EBOV VLP, 0.489 nM; with SUDV VLP, 0.351 nM; with MARV (Musoke strain) GP, 1 µg/mL. In addition, the binding result in the test with EBOV soluble GP (sGP) is on record as “no binding”.

B2: FVM09 (antibody, V domains shown)
VH: EVQLVQSGAEVKRPGESLTISCKTSGYSFTDSWVAWVRQMPGKGLEWLGSIYPGDSETKYNPSFQGHVTISADKSVTTTYLKWSSLKASDTATYYCVKGSETWGQGVLVTVSS
VL: QLVLTQPASLSASPGASASLTCTFSGGINVAGYNILWYQQKAGSPPRYLLRYKSDSTKDQGSGVPSRFSGSKDASANTGILRISGLQSEDEADYYCAIGHSSGWIFGGGTRLTVL
In the case of B2, the 50% effective concentration (EC50) in the test with EBOV VLP amounted to 24.2 nM; with SUDV VLP it was 21.3 nM. Also, the binding result in the test with MARV (Musoke strain) GP and with EBOV GPcl was “no binding” in each case.

(Values after patent US20170334973A1 (INTEGRATED BIOTHERAPEUTICS, published 2017).)
